These results are taken from patent US20240287156A1 (published 2024).

Test [1] concerns the target T1, MAGEA4 peptide on HLA-A*01:01 (human).
T1 peptide: WVQENYLEYR
The test is described as follows: cytokine release. On the procedure: (§1) FIG. 7. […] IFNγ release to the supernatant was measured by ELISA after 18 hours of coculture.

Test [2] addresses T2, titin peptide on HLA-A*01:01 (human).
T2 peptide: ESDPIVAQY
Description: cytokine release. On the procedure: as §1

The target of test [3] is T3, MAGEA3 peptide on HLA-A*01:01 (human).
T3 peptide: EVDPIGHLY
The test is described as follows: cytokine release. On the procedure:
as §1

Test [4] deals with T4, MAGEA4 peptide on HLA-A*01:01 (human).
T4 peptide: LVTCLGLSY
Description: cytokine release. On the procedure:
as §1

The target of test [5] is T5, MAGEA4 peptide on HLA-A*01:01 (human).
T5 peptide: TLVTCLGLSY
Description: cytokine release. The protocol:
as §1

For test [6], the target named is T6, MAGEA4 peptide on HLA-A*01:01 (human).
T6 peptide: DWVQENYLEY
Description: cytokine release. On the procedure:
as §1

In test [7] the target is T7, MAGEA4 peptide on HLA-A*01:01 (human).
T7 peptide: LTQDWVQENY
The test is described as follows: cytokine release. On the procedure:
as §1

The target of test [8] is T8, MAGEA4 peptide on HLA-A*01:01 (human).
T8 peptide: KEVDPASNTY
Description: cytokine release. The protocol:
as §1

Test [9] addresses T9, MAGEA4 peptide on HLA-A*01:01 (human).
T9 peptide: ELAHFLLRKY
Description: cytokine release. The protocol: as §1

Test [10] concerns the target T10, MAGEA4 peptide on HLA-A*01:01 (human).
T10 peptide: WVQENYLEY
The test is described as follows: cytokine release. On the procedure: as §1

Test [11] deals with T11, MAGEA4 peptide on HLA-A*01:01 (human).
T11 peptide: TTEEQEAAV
Description: cytokine release. The protocol:
as §1

For test [12], the target named is T12, MAGEA4 peptide on HLA-A*01:01 (human).
T12 peptide: EVDPASNTYT
Description: cytokine release. The protocol:
as §1

In test [13] the target is T13, MAGEA4 peptide on HLA-A*01:01 (human).
T13 peptide: TQDWVQENY
Description: cytokine release. On the procedure:
as §1

Test [14] concerns the target T14, MAGEA4 peptide on HLA-A*01:01 (human).
T14 peptide: EVDPASNTY
Description: IFN-gamma ELISA after 18 h; 1x10^5 TCR-transduced T cells with 5x10^4 peptide-loaded K562-A*01:01; two donors pooled, non-linear regression; full-length, on cells. On the procedure:
FIG. 6. […] The results of two donors were pooled and normalized as percentage of max. The depicted EC50 value was calculated by non-linear regression.
To calculate the EC50 value, non-linear regression was used to create a dose-response curve (FIG. 6). […] The K562 cells express HLA-A*01:01.
A general note: An ELISA detects its analyte on a solid surface through an enzyme-linked reagent.

B1: CTC-TCR127 (TCR)
alpha TRAV35*01 CDR3: AGQLWGGSNYKLT
beta TRBV5-1*01 CDR3: ASSLAGTGAHFITNEKLF
In the case of B1, the binding result in test [1], in test [2], in test [3], in test [4], in test [5] and in test [6] was “no recognition” throughout. The binding result is recorded as “no recognition” in test [7]; “recognises” in [8]; “no recognition” in [9]; “no recognition” in test [10]; “no recognition” in test [11]; “recognises” in [12]. In [13], the binding result is reported as “no recognition”. This molecule displayed an EC50 of peptide in [14] of 7.6 nM.
